Results as given in IntAct's records for PubMed 15047893.

B1: Serine/threonine-protein kinase TOUSLED (Arabidopsis thaliana (Mouse-ear cress)), Q39238 (parent)
chain: MSDDMVLHFSSNSSNQSDHSLPDKIAKLEARLTGKTPSSAKPPQQQQQQQQQVSLWSSASAAVKVVTSTPPGLSETSISDSDDENTGDFLIRANTKKRQKVQESNNFSVVDHVEPQEAAYDGRKNDAESKTGLDVSKKKQGRGRASSTGRGRGSKTNNDVTKSQFVVAPVSAASQLDASDQKDFRPDGQLRNGECSLQDEDLKSLRAKIAMLEEELRKSRQDSSEYHHLVRNLENEVKDLKDQEQQGKQKTTKVISDLLISVSKTERQEARTKVRNESLRLGSVGVLRTGTIIAETWEDGQMLKDLNAQLRQLLETKEAIERQRKLLKKRQNGDKNDGTDTESGAQEEDIIPDEVYKSRLTSIKREEEAVLRERERYTLEKGLLMREMKRIRDEDGSRFNHFPVLNSRYALLNLLGKGGFSEVYKAYDLVDHRYVACKLHGLNAQWSEEKKQSYIRHANRECEIHKSLVHHHIVRLWDKFHIDMHTFCTVLEYCSGKDLDAVLKATSNLPEKEARIIIVQIVQGLVYLNKKSQKIIHYDLKPGNVLFDEFGVAKVTDFGLSKIVEDNVGSQGMELTSQGAGTYWYLPPECFELNKTPMISSKVDVWSVGVLFYQMLFGKRPFGHDQSQERILREDTIIKAKKVEFPVTRPAISNEAKDLIRRCLTYNQEDRPDVLTMAQDPYLAYSKK
partner: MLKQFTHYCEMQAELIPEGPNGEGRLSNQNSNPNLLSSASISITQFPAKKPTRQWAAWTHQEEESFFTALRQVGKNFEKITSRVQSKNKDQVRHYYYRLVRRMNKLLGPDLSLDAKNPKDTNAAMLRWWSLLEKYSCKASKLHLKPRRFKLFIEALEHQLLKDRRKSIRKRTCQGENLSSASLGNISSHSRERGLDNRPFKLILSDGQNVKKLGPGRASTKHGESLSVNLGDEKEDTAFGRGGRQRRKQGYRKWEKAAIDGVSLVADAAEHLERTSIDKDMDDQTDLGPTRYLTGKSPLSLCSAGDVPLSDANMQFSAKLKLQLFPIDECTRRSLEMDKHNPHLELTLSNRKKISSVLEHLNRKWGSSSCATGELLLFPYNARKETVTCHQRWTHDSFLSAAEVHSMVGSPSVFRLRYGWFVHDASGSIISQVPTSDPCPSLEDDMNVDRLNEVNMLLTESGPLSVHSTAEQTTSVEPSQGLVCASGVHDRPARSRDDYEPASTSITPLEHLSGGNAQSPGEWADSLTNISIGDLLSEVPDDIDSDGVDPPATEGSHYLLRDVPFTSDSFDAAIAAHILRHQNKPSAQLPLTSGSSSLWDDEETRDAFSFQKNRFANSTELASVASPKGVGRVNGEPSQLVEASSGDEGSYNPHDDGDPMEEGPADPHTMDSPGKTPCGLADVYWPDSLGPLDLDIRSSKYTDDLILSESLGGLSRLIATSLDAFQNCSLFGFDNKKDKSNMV
B2: Serine/threonine-protein kinase TOUSLED (Arabidopsis thaliana (Mouse-ear cress)), Q39238 (parent)
chain: B1 chain
partner: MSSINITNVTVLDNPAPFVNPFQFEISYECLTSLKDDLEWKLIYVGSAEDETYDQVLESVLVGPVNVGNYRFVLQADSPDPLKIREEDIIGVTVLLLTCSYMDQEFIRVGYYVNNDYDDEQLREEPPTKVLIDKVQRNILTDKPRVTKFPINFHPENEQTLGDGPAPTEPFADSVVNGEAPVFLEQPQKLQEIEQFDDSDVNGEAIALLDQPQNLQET

Variants of: B1
Details: with tki1_arath TKI1, Q8LJT8

effect of a mutation on the interaction	Variant
disrupting interaction	K438E

Variants of: B2
Details: with asf1b_arath ASF1B

effect of a mutation on the interaction	Variant
disrupting interaction	K438E
